Data on 22 sequences can be found in the DeepSol protein solubility set.

The data set is described as follows: soluble on expression in E. coli; label from the status in PepcDB or PDB records.
In the case of “MWMKDPVARPLSPTRLQPALPPEAQSVPELEEVARVLAEIPRPLKRRGSMEQAPAVALPPTHKKQYQQIISRLFHRHGGPGPGGRSQSCPPSLRDLRPGQGPLLLPHQLPFHRPAPSQSSPPEQPQSMEMRSVLRKAGSPRKARRARLNPLVLLLDAALTGELEVVQQAVKEMNDPSQPNEEGITALHNAICGANYSIVDFLITAGANVNSPDSHGWTPLHCAASCNDTVICMALVQHGAAIFATTLSDGATAFEKCDPYREGYADCATYLADVEQSMGLMNSGAVYALWDYSAEFGDELSFREGESVTVLRRDGPEETDWWWAALHGQEGYVPRNYFGLFPRVKPQRSKV”, the “soluble on expression in E. coli” value is “soluble”.

For “GPLGSMATVPVYCVCRLPYDVTRFMIECDACKDWFHGSCVGVEEEEAPDIDIYHCPNCEKTHGKSTLKKKRTWHK”, the “soluble on expression in E. coli” value is given as “soluble”.

As to “VMGKRYVATPQQSQWEMVVNTPLECQLVHPIPSFGDAVFSSRANKKINLDFELKMRRPMGETRNVSLISMPPPWRPGEHADRITNLKFFKQFDGYVGGQTAWGILSELEKGRYPTFSYQDWQSRDQRIEVALSSVLFQNKYNAFSDCISNLLKYSFEDIAFTILHYERQGDQLTKASKKRLSQIADYIRHNQDIDLVLVATYTDSTDGKSASQSLSERRAESLRDYFQSLGLPEDRIQVQGYGKRRPIADNGSPIGKDKNRRVVISLGRTQVHHHHHH”, the “soluble on expression in E. coli” value was “soluble”.

On to “MEKYSQVIFDKNTVEFVTVAAEFCGFLERARDMKRYDFVDTALKILPLLYLKATLLPPCEPIGEDEPETFVTEEDYELIRRAIAGVLGAKDDYLEVFLPDMVYSDTPIKKCISEDLADIYQDLKDFISVFQLGLNETMNDSLVVCKEHFREFWGQRLVNTMRALHDVKYSPADDGEEEEMEDENSLLLEHHHHHH”, for which the “soluble on expression in E. coli” value is “soluble”.

As to “MSNRFAVILAAGKGTRMKSKLYKVLHPVCGKPMVQHVVDQVSQLGLQKLVTVVGHGAEMVQEQLGNVSEFALQAEQLGTAHAVDQAAGVLANEEGTTLVICGDTPLITAETMEALLQQHKEAGAMATVLTAYIEEPAGYGRIVRNENGHVEKIVEHKDANEKELAIKEINTGTYCFDNKALFASLSKVSNDNVQGEYYLPDVIEILKNEGHIVSAYQTEHFDETLGVNDRVALSQAEIIMKNRINRKNMVNGVTIIDPSNTYISADAIIGSDTVLHPGTIIEGNTVIGSDCEIGPHTVIRDSEIGDRTTIRQSTVHDSKLGTEVSVGPFAHIRPDSVIGDEVRVGNFVEIKKTVFGNRSKASHLSYIGDAQVGEDVNLGCGSITVNYDGKNKFKTVIGNGVFIGCNSNLVAPVTVEDGAYVAAGSTITENVPSKALSVARARQVNKEDYVDQLLNKKKS”, the “soluble on expression in E. coli” value is given as “not soluble”.

For “MSYPMTPVKRPTISHGIQASDGIIKRPIEGNKKRLSAPIKDKPEHRIAPEEITNAPTTSRLRRAPEFDVVVIMKTTKKDRKKIIQTPRRRSIKLANVPMTPKTAPIRRHSTGGNAAMSTPKRRKSFGSLAPVRQHRVETRKVVRNLMAVRPPLCF”, the “soluble on expression in E. coli” value is given as “soluble”.

For the sequence “MFDSTLNPLWQRYILAVQEEVKPALGCTEPISLALAAAVAAAELEGPVERVEAWVSPNLMKNGLGVTVPGTGMVGLPIAAALGALGGNANAGLEVLKDATAQAIADAKALLAAGKVSVKIQEPCDEILFSRAKVWNGEKWACVTIVGGHTNIVHIETHDGVVFTQQACVAEGEQESPLTVLSRTDAG”, the “soluble on expression in E. coli” value is listed as “not soluble”.

For the sequence “MTAGGERVTERGTGSDPVDLFIIGGGINGCGIARDAAGRGLSVTLAEMGDLAQATSSASTKLFHGGLRYLEYFEFRLVREALEERETLLVAMPHISWPMRFVLPWQPEMRFAGDTPTARLLGRLMPWARGRRPAWLIRLALETYDRLGGRKILPPARSVDLTRDPAGRALQPRFTKGWEYSDCWVEDSRLVVLNARDAEIRGATILTRTKVVGAERRGDLWHVTTEGARGRQVHRARALVNAGGPWVARIIRETLALPTTEGVRLVRGSHIVTKRLFDHDRCYFFQGTDGRIIFAIPYETDFTLIGTTDQDHRGAPDEARCTPEEQDYLCTFASDYFRKPVTREDIVWTYSGVRPLHDDGARSATAATRDYVLSLDSRGAPLLNVFGGKITTYRRLAESAMAKLAGHFPQARGAWTARVPLPGGDFPWDGAPALAEGLRRDYPFLTERWAMRLVRAYGTDARNLLGPARSALDLGRDFGATLTEAEVRWLMDREYAERAEDVVWRRSKLGLRLTPEEIAALDGWMKDAGGAMEARADTGLEHHHHHH”, the “soluble on expression in E. coli” value is on record as “soluble”.

In the case of “AIAEAKTLGIATPRKPVLSVSARKLKDNAADWHNLILKWDSLSDKGFTTASSIANLKVSLLSKEKVELESSSPASMEEEEKTNLDYDKGLEALCEELQAILDGLTKIQMKMEKLSSTTKGICELENYHYREESSRPPLFHTWPTAFFYEVSRRLSEAYKKELLLKHTIGAELAHTADRNLSLTYLSMWLHQPYIESNSKLQLESMLLETGHRAL”, the “soluble on expression in E. coli” value was “soluble”.

Turning to “MTAPFKDHFSTGSANYAAHRPTYPAQLVDELAALCPGTRLALDCGCGTGQLTVLLAERFERVVGTDASAAQIDKAQARERVEYRVALAEDSGLAAASADLVTVAQAAHWLDLPRFYEEVRRVARADAILALVTYGVLHVDGPMEPLVQHFYHQVVGPYWPAERRHVEEGYRNLPFPFEERRLPDLAIEVAWTLDELLGYVGTWSAVKEAGKALGQDPGAAFVDELREAWGDPQTRYRVSWPLTVRAGVIR”, the “soluble on expression in E. coli” value is listed as “not soluble”.

For the sequence “GPGSMMTTCPQTRCYNCGTFGHSSQICHSKPHCFHCSHSGHRSSECPMRSKGRVCYQCNEPGHEAANCPQGQLCRMCHRPGHFVAHCPEVVCNLCHLKGHTAGVCDNVHCDNCGRNHETVHCHQPYLAPVTHDRVSEERSASLPSEHDPSSADQSNNSATPCDSDDGGSNRGGEPRPRTGVSCAPVVPPYIPLDGPKRDGRVAIVVDGSYFERCVAVRRNRSDPTYYRHITDALLYTIDYIGDIFQCEPFAYWFDTDTAAFREFVETSMPLAHRENAFREASMRKRYLTDEMNSGRSLPNVVAKLVGGMKRQRGFTEDGPGHVWVQTGVDVATATCVIELFQDRRQFRQVVLLCGDADVYPAVQYCNTLRRSSHQHADSNPVRVCGTSDSMSKIYGQQQDLTDFLPRLLLDCPLHTEGGRTIEFPTSKVFMSVR”, the “soluble on expression in E. coli” value was “not soluble”.

In the case of “MSLWLAGTWYTGQRIETESQTRLNEINAQLAAAFPEFPVRINQLKLERGFFTSQARYGVEVGKSEETGKPEATVEVDARIEHGPFAPGALARGKLMPQLAFVHAEVANTEDLKKVFEVTKGATPLWSDTVVAYNGDSTSTGGLAAIDYSGDEGKFAFSGATFDGSYQRATQAAIGSLKADSLALDASADDDGGPLLFTLDGLAVTVDSRMGKSGLSIGDSALSVKRLEVKQPEGDAHLTVADMAYAARIGEQDEFINGEISYGAGEITYNGIALGNGRAVFKAERLNAAAIKVVADEYNKAIKLQAEGKDPVPDNAEMRKLLMAQADTLLAGKPVLTLDPVQWKTAQGESVFNARVALSKPASSDLMAVDYFSQAIESIDASATLSKPMIKALMVGYLQSQEGMDAQQAAAAADQQVSSLAGMAEMMNLGKNEGDNIVSKFHYAAGTVDLNGRKMPADQLLGSILGGEGHHHHHH”, the “soluble on expression in E. coli” value is listed as “not soluble”.

For “SNASVRPSLWEFSSRVGMHVGASTPVPVPQAMEHVYAWYPRLNPMVQLSASRRLLAGSPWAVNVGIAVEKKGMEATTRVKDMKVAIVSDSPYAGNPDEEYPGLFTGDNNTEIRLGYLTIPVQAEYNMLKDRLKLRGGLYTSLLLESSFRVIIDGTMVYDDPKLGTAQMDLRELNFSDKIKGADFGVIIGADYYFARQ”, the “soluble on expression in E. coli” value is “not soluble”.

Regarding “MAHHHHHHMGTLEAQTQGPGSMDKTLDKQVAIVTGASRGIGRAIALELARRGAMVIGTATTEAGAEGIGAAFKQAGLEGRGAVLNVNDATAVDALVESTLKEFGALNVLVNNAGITQDQLAMRMKDDEWDAVIDTNLKAVFRLSRAVLRPMMKARGGRIVNITSVVGSAGNPGQVNYAAAKAGVAGMTRALAREIGSRGITVNCVAPGFIDTDMTKGLPQEQQTALKTQIPLGRLGSPEDIAHAVAFLASPQAGYITGTTLHVNGGMFMS”, the “soluble on expression in E. coli” value is “soluble”.

Consider “MSQMELIKKLREATGAGMMDVKRALEDAGWDEEKAVQLLRERGAMKAAKKADREAREGIIGHYIHHNQRVGVLVELNCETDFVARNELFQNLAKDLAMHIAMMNPRYVSAEEIPAEELEKERQIYIQAALNEGKPQQIAEKIAEGRLKKYLEEVVLLEQPFVKDDKVKVKELIQQAIAKIGENIVVRRFCRFELGA”, for which the “soluble on expression in E. coli” value was “soluble”.

As to “MSLQTIEEMDAYPAVDDSGDHLLDPNMIPTAATEVVMSGDGIERQFGDEEDTYQYEYTYEDDPQLEIGEEEVVVTDEAEYQEHWKDEEK”, the “soluble on expression in E. coli” value was “not soluble”.

For “MSLTEPDSKPKKGRAGRKKAEPVRPPEQFLELAELLDYVGQVIARGVPGGVWVRAEIASLTDRRHLYLDLVQAGEGGAGGVGEVAKCRATVWARERFALEAKFRGATSGATLSAGLKVLLFGTAEFHPQYGFSFNVLDISPEYTLGDAALRLEAMRAELVAEGSYGLNRLLPVPTDFARVAVIAPREAAGLGDFRREADPLEAAGLVEFHYLEATFQGREAGASLLRAVAAARELHQEKALDALFVIRGGGAVTDLAWLNDLELARALATFPAPVVTGLGHARDDTLPDEVACLRTDTPSKAAAYLVRTVVNAAAQAQEAARTIRAEAARVLVEAEAAAAWARDRALSSAVRRVDAAAAEVDALMRQALGLTPQRTLARGYALVRDAAGQPVTRAAGARAGEPLTLEWSDGSVEGHHHHHH”, the “soluble on expression in E. coli” value is reported as “soluble”.

In the case of “MGNCLKSPTSDDISLLHESQSDRASFGEGTEPDQEPPPPYQEQVPVPVYHPTPSQTRLATQLTEEEQIRIAQRIGLIQHLPKGVYDPGRDGSEKKIRECVICMMDFVYGDPIRFLPCMHIYHLDCIDDWLMRSFTCPSCMEPVDAALLSSYETN”, the “soluble on expression in E. coli” value is “soluble”.

Turning to “MILHAQAKHGKLGLPWLVFLHGFSGDCHEWQEVGEAFADYSRLYVDLLGHGGSAAISVDGFDDVTDLLRKTLVSYNILDFWLVGYSLGGRVAMMAACQGLAGLCGVIVEGGHPGLQNAEQRAERQRSDRQWAQRFRTEPLTAVFADWYQQPVFASLNDDQRRELVALRSNNNGATLAAMLEATSLAVQPDLRANLSARTFAFYYLCGERDSKFRALAAELAADCHVIPRAGHNAHRENPAGVIASLAQILRF”, the “soluble on expression in E. coli” value was “not soluble”.

With “MSLKTGRTNTIVVLVPNLINPFFMRIIGGIEQAAQERGFTVLLCDTQGESKRESDYASMVLTNRADGLIQLDHSFPFTEDDAKLAETIPMVSVCERIHSDKKYPVVALDNYAASRALAHHLVSYGHTKFAVIVGQVVSQIHKDRLYGLRSVLAEEDIEFDEDMIVGQSYSIENGIEGMRQLLEKPNRPSAVICFNDDIAIGAMHEIHRQGLRVPEDISVVGFDNVKVAAFMNPPLTTIDQPAYEMGRRGMEILSDVINGVPLTRSSEMLPFQLLERESSGEGHHHHHH”, the “soluble on expression in E. coli” value is given as “not soluble”.

For “MGSDKIHHHHHHMQINNKIIISCSIIASLVSQTTYAQINTGTTSNKLTAFIHAELIIAPGKRLSDATLLVGNNRIKAIIEHGDIPAGAFKIDLSGYTIYPGFIDPFTDYGIEFEYPKLGLTRPVYGIKRIGGNADNGAIHSEKEWFNYVYPNKERAKEWINNGFTSVQSSKLDGIFRGTGVSLSLADKTANEVIYRARSQPFMAFDKGSSEQDYPSSLMGSIALIRPRIQIISATLGQNGEEGVSC”, the “soluble on expression in E. coli” value is “not soluble”.

For the sequence “MRLLIITGISGAGKSLVVKYLEDIGFFCVDNLPPLLIGKFAEICLKSRGKISKVALVIDIRGGELFNDLVPELNALKESGIDYEILFLEASDQVLIKRYKESRRIHPLAPEGRLIKGIKTEREILSQIRKNATYIIDTSNLTPRQLKEEILAIFVEGRKFDGMIVNIISFGFKYGIPIECDLVFDVRFIPNPYYIESMKYKTGKDEEVRNYVMSFAETAEFMTKLKDLVDFLIPNYIKEGKSQLVIGVGCTGGRHRSVAISEALFSYLCGREHRVFIDHRDIDKDGRSNRR”, the “soluble on expression in E. coli” value is “soluble”.
